In the supplement of paper PMC9233669:
Variants at the floor of the assay were thinned out.

Key:
biotinyl-Leu-oxazolone = assay: self-aminoacylation, catalytic enhancement (BLO) (fold over background); higher = more active; k-Seq, kA / k0A0; sequences stand for … in GGGAAUGGAUCCACAUCUACGAAUUC…UUCACUGCAGACUUGACGAAGCUG
How it was run: (§1)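 Working in 50 μL HEPES/NaCl/KCl/MgCl2/CaCl2 buffer with 5% acetonitrile at pH 6.9–7.0, mutagenized RNA pools (0.43 μM; 21-nt variable region) were reacted with 2–1250 μM of each biotinyl-aminoacyl-oxazolone for 90 minutes at room temperature. Streptavidin capture followed, with quantification by triplicate qPCR and Illumina sequencing. Catalytic enhancement is reported as median kA over the uncatalyzed rate, the low-activity peak of a bimodal Gaussian fit to the data.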

biotinyl-Trp-oxazolone = assay: self-aminoacylation, catalytic enhancement (BWO) (fold over background); higher = more active; k-Seq, kA / k0A0; sequences stand for … in GGGAAUGGAUCCACAUCUACGAAUUC…UUCACUGCAGACUUGACGAAGCUG
How it was run: as §1

biotinyl-Phe-oxazolone = assay: self-aminoacylation, catalytic enhancement (BFO) (fold over background); higher = more active; k-Seq, kA / k0A0; sequences stand for … in GGGAAUGGAUCCACAUCUACGAAUUC…UUCACUGCAGACUUGACGAAGCUG
How it was run: as §1

biotinyl-Ile-oxazolone = assay: self-aminoacylation, catalytic enhancement (BIO) (fold over background); higher = more active; k-Seq, kA / k0A0; sequences stand for … in GGGAAUGGAUCCACAUCUACGAAUUC…UUCACUGCAGACUUGACGAAGCUG
How it was run: as §1

biotinyl-Met-oxazolone = assay: self-aminoacylation, catalytic enhancement (BMO) (fold over background); higher = more active; k-Seq, kA / k0A0; sequences stand for … in GGGAAUGGAUCCACAUCUACGAAUUC…UUCACUGCAGACUUGACGAAGCUG
How it was run: as §1

biotinyl-Val-oxazolone = assay: self-aminoacylation, catalytic enhancement (BVO) (fold over background); higher = more active; k-Seq, kA / k0A0; sequences stand for … in GGGAAUGGAUCCACAUCUACGAAUUC…UUCACUGCAGACUUGACGAAGCUG
How it was run: as §1

Row | Sequence | self-aminoacylation (biotinyl-Leu-oxazolone) | self-aminoacylation (biotinyl-Trp-oxazolone) | self-aminoacylation (biotinyl-Phe-oxazolone) | self-aminoacylation (biotinyl-Ile-oxazolone) | self-aminoacylation (biotinyl-Met-oxazolone) | self-aminoacylation (biotinyl-Val-oxazolone)
1 | CUUCACCUAGGUCAUCGCGUG [Fam2.2 aminoacylation ribozyme variant] | 13.6 | 10.9 | 96.5 | 7.29 | 12.4 | 8.89
2 | CUUCACCUAGGUCAUCGGGUG [Fam2.2 aminoacylation ribozyme variant] | 9 | 6.65 | 34.6 | 4.63 | 7.51 | 5.18
3 | CUUCACCUAGGUCAUCGGGUU [Fam2.2 aminoacylation ribozyme variant] | 7.09 | 5.02 | 18.1 | 4.09 | 5.02 | 3.77
4 | CUUCACCUAGGUCAUUGGGUG [Fam2.2 aminoacylation ribozyme variant] | 2.25 | 2.35 | 12.3 | 1.98 | 2.36 | 2.22
5 | CUUCACCUAUGUCAUCGGGUG [Fam2.2 aminoacylation ribozyme variant] | 4.68 | 4.46 | 17 | 2.35 | 3.64 | 2.83
6 | CUUCACGUAGGUCAUCGGGUG [Fam2.2 aminoacylation ribozyme variant] | 4.22 | 4.63 | 36.6 | 3.59 | 4.38 | 4.16
7 | CUUCACUUCAAGCAAUCGGUC [Fam1B.1 aminoacylation ribozyme variant] | 1.55 | 20.9 | 46.4 | 1.05 | 1.16 | 1.15
8 | CUUCAGCUAGGUCAUCGGGUG [Fam2.2 aminoacylation ribozyme variant] | 3.57 | 3.83 | 16 | 2.65 | 3.42 | 3.6
9 | CUUCGCCUAGGUCAUCGGGUG [Fam2.2 aminoacylation ribozyme variant] | 4.47 | 5.8 | 37.4 | 3.75 | 3.41 | 4.54
10 | CUUCUCCUAGGUCAUCGGGUG [Fam2.2 aminoacylation ribozyme variant] | 8.84 | 6.52 | 35.6 | 4.42 | 6.43 | 4.48
11 | CUUCUUAAAACAAUCGGUCUG [Fam1A.1 aminoacylation ribozyme variant] | 0.739 | 0.564 | 0.699 | 0.859 | 0.895 | 0.748
12 | CUUCUUCAAAAAAUCGGUCUG [Fam1A.1 aminoacylation ribozyme variant] | 1.02 | 5.39 | 6.58 | 1 | 0.902 | 0.851
13 | CUUCUUCAAACAAUCGGUCUC [Fam1A.1 aminoacylation ribozyme variant] | 1.08 | 13.6 | 28.6 | 0.814 | 0.773 | 0.874
14 | CUUCUUCAAACAAUCGUUCUG [Fam1A.1 aminoacylation ribozyme variant] | 0.65 | 0.804 | 1.06 | 0.68 | 0.62 | 0.6
15 | CUUCUUCAAUCAAUCGGUCUG [Fam1A.1 aminoacylation ribozyme variant] | 1.21 | 11.3 | 18.9 | 0.975 | 0.986 | 0.956
16 | CUUGACCUAGGUCAUCGGGUG [Fam2.2 aminoacylation ribozyme variant] | 4.42 | 5.2 | 23.2 | 3.43 | 3.39 | 3.87
17 | CUUGCCCUGGUCAUCGAGUGA [Fam2.1 aminoacylation ribozyme variant] | 14.7 | 16.5 | 64.3 | 6.56 | 15.4 | 7.34
18 | CUUGUUCAAACAAUCGGUCUG [Fam1A.1 aminoacylation ribozyme variant] | 1.18 | 3.07 | 5.84 | 1.07 | 0.957 | 0.967
19 | CUUUACCUAGGUCAUCGGGUG [Fam2.2 aminoacylation ribozyme variant] | 7.1 | 5.46 | 25.3 | 3.85 | 5.23 | 3.71
20 | CUUUUUCAAACAAUCGGUCUG [Fam1A.1 aminoacylation ribozyme variant] | 0.89 | 3.86 | 6.81 | 0.86 | 0.67 | 0.815
21 | GAGUCUGCUAAUAGUCGCAAG [Fam3.1 aminoacylation ribozyme variant] | 2.07 | 14 | 46.9 | 1.99 | 2.34 | 1.63
22 | GAGUUUACUAAUAGUCGCAAG [Fam3.1 aminoacylation ribozyme variant] | 1.59 | 2.33 | 3.13 | 1.84 | 1.19 | 1.29
23 | GAGUUUGCUAAUAGUCGCAAG [Fam3.1 aminoacylation ribozyme variant] | 1.39 | 7.44 | 22.7 | 1.72 | 1.78 | 1.5
24 | GAGUUUGCUAAUUGUCGCAAG [Fam3.1 aminoacylation ribozyme variant] | 1.53 | 2.06 | 2.2 | 1.36 | 1.34 | 1.24
25 | GAGUUUGCUAUUAGUCGCAAG [Fam3.1 aminoacylation ribozyme variant] | 1.28 | 1.72 | 2.47 | 1.18 | 1.17 | 1.01
26 | GAUACCCUGGUCAUCGAGUGA [Fam2.1 aminoacylation ribozyme variant] | 7.96 | 10.5 | 31.6 | 4.92 | 8.5 | 5.43

Row | Sequence | self-aminoacylation (biotinyl-Leu-oxazolone) | self-aminoacylation (biotinyl-Trp-oxazolone) | self-aminoacylation (biotinyl-Phe-oxazolone) | self-aminoacylation (biotinyl-Ile-oxazolone) | self-aminoacylation (biotinyl-Met-oxazolone) | self-aminoacylation (biotinyl-Val-oxazolone)
27 | GCAAACUUCAAGCAAUCGGUC [Fam1B.1 aminoacylation ribozyme variant] | 2.47 | 19.5 | 21.7 | 2.13 | 2.05 | 2.17
28 | GCACACUUAAAGCAAUCGGUC [Fam1B.1 aminoacylation ribozyme variant] | 1.15 | 1.49 | 1.1 | 1.25 | 1.06 | 1.18
29 | GCACACUUCAAGAAAUCGGUC [Fam1B.1 aminoacylation ribozyme variant] | 2.21 | 8.15 | 7.74 | 1.97 | 1.87 | 1.59
30 | GCACACUUCAAGCAAUCGGUG [Fam1B.1 aminoacylation ribozyme variant] | 10.3 | 10.1 | 49.1 | 6.23 | 8.09 | 5.92
31 | GCACACUUCAAGCAGUCGGUC [Fam1B.1 aminoacylation ribozyme variant] | 1.75 | 1.69 | 1.33 | 1.56 | 1.55 | 1.41
32 | GCACACUUCAAGCCAUCGGUC [Fam1B.1 aminoacylation ribozyme variant] | 2.81 | 3.87 | 8.33 | 2.81 | 2.32 | 2.57
33 | GCACACUUCAAGGAAUCGGUC [Fam1B.1 aminoacylation ribozyme variant] | 1.61 | 4.35 | 3.95 | 1.67 | 1.55 | 1.22
34 | GCACACUUCAAGUAAUCGGUC [Fam1B.1 aminoacylation ribozyme variant] | 1.77 | 8.15 | 8.6 | 1.89 | 1.88 | 1.7
35 | GCACACUUCGAGCAAUCGGUC [Fam1B.1 aminoacylation ribozyme variant] | 1.46 | 2.86 | 2.2 | 1.87 | 1.9 | 1.81
36 | GCACACUUCUAGCAAUCGGUC [Fam1B.1 aminoacylation ribozyme variant] | 0.999 | 1.28 | 1.34 | 1.2 | 0.936 | 1.22
37 | GUACACUUCAAGCAAUCGGUC [Fam1B.1 aminoacylation ribozyme variant] | 1.64 | 18.4 | 21.1 | 1.55 | 1.29 | 1.34
38 | GUACUUCAAACAAUCGCUCUG [Fam1A.1 aminoacylation ribozyme variant] | 1.88 | 3.76 | 3.1 | 1.77 | 1.91 | 1.71
39 | GUACUUCAAACAAUCGGCCUG [Fam1A.1 aminoacylation ribozyme variant] | 7.02 | 89.6 | 272 | 4.51 | 4.06 | 4.17
40 | GUACUUCAAACAAUCGGGCUG [Fam1A.1 aminoacylation ribozyme variant] | 2.67 | 14.6 | 21.1 | 3.02 | 2.47 | 2.8
41 | GUACUUCAAACAAUCUGUCUG [Fam1A.1 aminoacylation ribozyme variant] | 1.45 | 3.06 | 4.1 | 1.76 | 1.41 | 1.56
42 | GUACUUCAAACAUUCGGUCUG [Fam1A.1 aminoacylation ribozyme variant] | 1.66 | 2.34 | 6.13 | 1.63 | 1.6 | 1.96
43 | GUACUUCACACAAUCGGUCUG [Fam1A.1 aminoacylation ribozyme variant] | 1.11 | 1.67 | 1.5 | 1.34 | 1.02 | 1.3
44 | GUACUUCAGACAAUCGGUCUG [Fam1A.1 aminoacylation ribozyme variant] | 1.32 | 1.56 | 4.98 | 1.22 | 1.2 | 1.06
45 | GUCCACCUAGGUCAUCGGGUG [Fam2.2 aminoacylation ribozyme variant] | 4.46 | 6.85 | 35.1 | 4.43 | 4.1 | 4.67
46 | GUGACCCUGGUCAUCGAGUGA [Fam2.1 aminoacylation ribozyme variant] | 19.6 | 17.8 | 144 | 7.41 | 21.7 | 7.42
47 | GUGCUUCAAACAAUCGGUCUG [Fam1A.1 aminoacylation ribozyme variant] | 4.85 | 79.6 | 195 | 2.57 | 2.69 | 2.39
48 | GUUAACCUAGGUCAUCGGGUG [Fam2.2 aminoacylation ribozyme variant] | 16.1 | 12.7 | 77.3 | 7.79 | 11.9 | 6.73
49 | GUUAACCUGGUCAUCGAGUGA [Fam2.1 aminoacylation ribozyme variant] | 6.73 | 8.69 | 24.2 | 4.69 | 6.75 | 3.95
50 | GUUACCAUGGUCAUCGAGUGA [Fam2.1 aminoacylation ribozyme variant] | 9.59 | 10.3 | 28.3 | 5.01 | 8.11 | 5.22
51 | GUUACCCUGCUCAUCGAGUGA [Fam2.1 aminoacylation ribozyme variant] | 2.23 | 3.45 | 8.33 | 1.66 | 3.06 | 1.79
